± gives the uncertainty stated by the source.
Assay: self-splicing fitness, log relative to wild type (ln ratio); higher = more splicing; Tetrahymena group I intron in knt gene, E. coli kanamycin selection, DiMSum; sequences stand for … in CUCUCU…GGAGGGAAAAGUUAUCAGGCAUGCACCUGGUAGCUAGUCUUUAAACCAAUAGAUUGCAUCGGUUUAAAAGGCAAGACCGUCAAAUUGCGGGAAAGGGGUCAACAGCCGUUCAGUACCAAGUCUCAGGGGAAACUUUGAGAUGGCCUUGCAAAGGGUAUGGUAAUAAGCUGACGGACAUGGUCCUAACCACGCAGCCAAGUCCUAAGUCAACAGAUCUUCUGUUGAUAUGGAUGCAGUUCACAGACUAAAUGUCGGUCGGGGAAGAUGUAUUCUUCUCAUAAGAUAUAGUCGGACCUCUCCUUAAUGGGAGCUAGCGGAUGAAGUGAUGCAACACUGGAGCCGCUGGGAACUAAUUUGUAUGCGAAAGUAUAUUGAUUAGUUUUGGAGUACUCGUGGUCG
Summary of the method: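 Fitness was computed with DiMSum as the error-weighted combination of replicate fold changes, kanamycin versus none, each normalised to wild type. The library randomised all eight intron nucleotides of the P1ex region, with the intron placed in the knt kanamycin-resistance gene on pET-22b(+) in E. coli BL21(DE3). Six replicate transformations were grown overnight at 37°C or 30°C on LB agar with or without 25 μg/mL kanamycin, plus 100 μg/mL carbenicillin, 50 μM IPTG and 0.2% rhamnose. Pooled colonies were amplicon-sequenced on an Illumina HiSeq 2500.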

Sequence | self-splicing fitness (ln) (30 °C) | self-splicing fitness (ln) (37 °C)
GACGAGCAAUAUUACGUGAG | -2.7 ± 0.16 | -2.62 ± 0.19
GACGAGCAAUAUUACGUGAU | -3.53 ± 0.17 | -2.6 ± 0.16
GACGAGCAAUAUUACGUGCG | -2.7 ± 0.17 | -0.259 ± 0.11
GACGAGCAAUAUUACGUGUC | – | -2.74 ± 0.28
GACGAGCAAUAUUACGUUCA | -1.67 ± 0.19 | -0.881 ± 0.16
GACUAGCAAUAUUACGACAA | -0.896 ± 0.063 | -0.0215 ± 0.069
GACUAGCAAUAUUACGACAC | -0.0525 ± 0.075 | -0.0737 ± 0.093
GACUAGCAAUAUUACGACCC | 0.42 ± 0.14 | 0.392 ± 0.18
GACUAGCAAUAUUACGAGUG | -0.94 ± 0.078 | -0.316 ± 0.098
GACUAGCAAUAUUACGAUUG | -2.2 ± 0.087 | -2.14 ± 0.15
GACUAGCAAUAUUACGCAGG | -3.04 ± 0.17 | -2.17 ± 0.12
GACUAGCAAUAUUACGCAUU | -2.42 ± 0.14 | -1.63 ± 0.13
GACUAGCAAUAUUACGCUAA | -1.08 ± 0.12 | -0.983 ± 0.13
GACUAGCAAUAUUACGCUCA | -0.407 ± 0.1 | -0.306 ± 0.11
GACUAGCAAUAUUACGCUUU | -2.59 ± 0.19 | -1.66 ± 0.16
GACUAGCAAUAUUACGGACA | -0.472 ± 0.1 | -0.0878 ± 0.11
GACUAGCAAUAUUACGGCCU | -1 ± 0.11 | -0.85 ± 0.16
GACUAGCAAUAUUACGGGCU | -2.18 ± 0.15 | -1.64 ± 0.15
GACUAGCAAUAUUACGGUCU | -3.36 ± 0.22 | -3.21 ± 0.33
GACUAGCAAUAUUACGGUUA | -0.116 ± 0.083 | 0.109 ± 0.085
GACUAGCAAUAUUACGUCCC | -1.82 ± 0.23 | -0.833 ± 0.22
GACUAGCAAUAUUACGUGAA | -0.567 ± 0.056 | -0.302 ± 0.083
GACUAGCAAUAUUACGUGCA | -0.898 ± 0.059 | -0.504 ± 0.068
GACUAGCAAUAUUACGUUUA | -1.05 ± 0.094 | -0.651 ± 0.11
GAGAAGCAAUAUUACGAAGA | -1.43 ± 0.28 | -1.67 ± 0.26
GAGAAGCAAUAUUACGACAC | -0.317 ± 0.15 | 0.578 ± 0.18

Sequence | self-splicing fitness (ln) (30 °C) | self-splicing fitness (ln) (37 °C)
GAGAAGCAAUAUUACGACGG | -3.47 ± 0.29 | -1.97 ± 0.23
GAGAAGCAAUAUUACGACUC | -2.38 ± 0.18 | -1.82 ± 0.23
GAGAAGCAAUAUUACGAGAG | -2.86 ± 0.23 | -1.91 ± 0.22
GAGAAGCAAUAUUACGAGCG | -1.15 ± 0.16 | -0.106 ± 0.18
GAGAAGCAAUAUUACGAGGC | -3.35 ± 0.21 | -1.78 ± 0.17
GAGAAGCAAUAUUACGCAAU | -3.12 ± 0.17 | -1.52 ± 0.14
GAGAAGCAAUAUUACGCACA | -0.725 ± 0.19 | 0.27 ± 0.25
GAGAAGCAAUAUUACGCAGA | -2.84 ± 0.17 | -1.8 ± 0.19
GAGAAGCAAUAUUACGCCAU | -2.68 ± 0.38 | -1.87 ± 0.35
GAGAAGCAAUAUUACGCCUA | -0.659 ± 0.15 | -1.03 ± 0.14
GAGAAGCAAUAUUACGCGAG | -1.75 ± 0.086 | -0.918 ± 0.078
GAGAAGCAAUAUUACGCGCA | -0.304 ± 0.11 | 0.342 ± 0.12
GAGAAGCAAUAUUACGGACG | -0.812 ± 0.12 | -0.528 ± 0.2
GAGAAGCAAUAUUACGUACA | -0.535 ± 0.066 | -0.692 ± 0.077
GAGAAGCAAUAUUACGUAGG | -3.2 ± 0.23 | -0.924 ± 0.15
GAGAAGCAAUAUUACGUUUC | -3.64 ± 0.32 | -3.08 ± 0.27
GAGCAGCAAUAUUACGAAUG | -3.81 ± 0.2 | -1.94 ± 0.14
GAGCAGCAAUAUUACGACAG | -3.25 ± 0.21 | -2.6 ± 0.27
GAGCAGCAAUAUUACGACGU | -0.383 ± 0.072 | -0.812 ± 0.079
GAGCAGCAAUAUUACGAGUA | -2.42 ± 0.34 | -1.92 ± 0.26
GAGCAGCAAUAUUACGAGUC | -1.91 ± 0.12 | -1.92 ± 0.17
GAGCAGCAAUAUUACGAUAC | -1.61 ± 0.12 | -1.45 ± 0.15
GAGCAGCAAUAUUACGCACC | -2.67 ± 0.39 | -1.82 ± 0.48
GAGCAGCAAUAUUACGCCCC | -2.24 ± 0.47 | –
GAGCAGCAAUAUUACGCCCU | -0.964 ± 0.31 | –
GAGCAGCAAUAUUACGCCGC | -1.63 ± 0.22 | -2.43 ± 0.38

Sequence | self-splicing fitness (ln) (30 °C) | self-splicing fitness (ln) (37 °C)
GAGCAGCAAUAUUACGCGAG | -2.38 ± 0.14 | -0.876 ± 0.12
GAGCAGCAAUAUUACGCGAU | -4.28 ± 0.33 | -0.0586 ± 0.21
GAGCAGCAAUAUUACGCUAC | – | -1.95 ± 0.33
GAGCAGCAAUAUUACGCUUU | -1.94 ± 0.18 | -2.5 ± 0.26
GAGCAGCAAUAUUACGGACU | -1.32 ± 0.082 | -0.127 ± 0.11
GAGCAGCAAUAUUACGGCGC | -0.751 ± 0.12 | 0.209 ± 0.17
GAGCAGCAAUAUUACGGGCG | -2.09 ± 0.14 | -0.811 ± 0.16
GAGCAGCAAUAUUACGGUUA | -0.804 ± 0.1 | -0.875 ± 0.1
GAGCAGCAAUAUUACGUACA | -1.06 ± 0.22 | -0.116 ± 0.17
GAGCAGCAAUAUUACGUAGU | -3.35 ± 0.19 | -1.01 ± 0.15
GAGCAGCAAUAUUACGUCAU | -2.38 ± 0.12 | -1.02 ± 0.13
GAGCAGCAAUAUUACGUCUA | 0.0729 ± 0.12 | 0.0653 ± 0.13
GAGCAGCAAUAUUACGUGCG | -1.65 ± 0.12 | -1.25 ± 0.11
GAGCAGCAAUAUUACGUGGA | -3.09 ± 0.22 | -1.69 ± 0.15
GAGCAGCAAUAUUACGUGGU | -3.66 ± 0.25 | -2.25 ± 0.23
GAGCAGCAAUAUUACGUGUU | -3.3 ± 0.33 | -2.81 ± 0.22
GAGCAGCAAUAUUACGUUAA | -3.53 ± 0.27 | -0.69 ± 0.13
GAGCAGCAAUAUUACGUUAG | -2.57 ± 0.16 | -1.93 ± 0.19
GAGGAGCAAUAUUACGAACG | -2.65 ± 0.22 | -1.54 ± 0.25
GAGGAGCAAUAUUACGACAG | -1.38 ± 0.36 | -1.5 ± 0.39
GAGGAGCAAUAUUACGACUC | -3.04 ± 0.27 | -2.25 ± 0.31
GAGGAGCAAUAUUACGAGAU | -2.78 ± 0.32 | –
GAGGAGCAAUAUUACGAGGG | – | -1.96 ± 0.41
GAGGAGCAAUAUUACGAGGU | -2.71 ± 0.24 | -3.09 ± 0.25
GAGGAGCAAUAUUACGAUUA | -1.73 ± 0.15 | -1.8 ± 0.13
GAGGAGCAAUAUUACGCACG | – | -0.155 ± 0.47

— the supplement of paper PMC7877785
